Reference: US7838294B2, “Inhibitors of the JNK signal transduction pathway and methods of use” (University of Massachusetts, priority 1997, dated 2010)

Key:
p38 [1] = molecular target: p38 (Homo sapiens, UniProt Q16539); test: Co-immunoprecipitation of JIP-1 with p38 (specificity control); assay type: binding; conditions: control experiment
p38 [2] = test: Immune complex protein kinase assay: p38, substrate GST-ATF2; assay type: biochemical, Chinese hamster; conditions: in vitro, 3 μg GST-ATF2
Experimental: (§1) To test whether JIP-1 competes with Jun and ATF2 for interaction with JNK, the effect of JIP-1 on transcription factor-mediated phosphorylation of exogenous substrates was analyzed using an in vitro protein kinase assay. In these experiments, Chinese hamster ovary (CHO) cells were serum-starved for one hour. In some experiments, the cells were treated with 10 ng/ml mouse interleukin 1 or 100 nM phorbol myristic acetate. JNK, p38, and ERK protein kinase activity was measured in an immune complex kinase assay using 3 μg of the substrates GST-Jun, GST-ATF2, and myelin basic protein (MBP), respectively. Protein kinase assays were performed using 40 μl 20 mM Hepes (pH 7.4), 20 mM MgCl2, 20 mM β-glycerophosphate, 2 mM dithiothreitol, 0.1 mM sodium orthovanadate, 50 μM [γ-^32P]ATP (10 Ci/mmol). After incubation for 30 minutes at 30° C., phosphorylation of substrates was analyzed by polyacrylamide gel electrophoresis and autoradiography.

JNK [3] = molecular target: T1, JNK (Homo sapiens, UniProt P45983); test: Immunofluorescence: subcellular distribution of JNK on JIP-1 expression; assay type: cell-based; conditions: HA-JNK1 with Flag-JIP-1; control and UV-irradiated cells
T1 construct: expressed in transfected cells; host or cells: COS-1 cells (co-immunoprecipitation)
T1 sequence (P45983 1-384 isoform P45983-2): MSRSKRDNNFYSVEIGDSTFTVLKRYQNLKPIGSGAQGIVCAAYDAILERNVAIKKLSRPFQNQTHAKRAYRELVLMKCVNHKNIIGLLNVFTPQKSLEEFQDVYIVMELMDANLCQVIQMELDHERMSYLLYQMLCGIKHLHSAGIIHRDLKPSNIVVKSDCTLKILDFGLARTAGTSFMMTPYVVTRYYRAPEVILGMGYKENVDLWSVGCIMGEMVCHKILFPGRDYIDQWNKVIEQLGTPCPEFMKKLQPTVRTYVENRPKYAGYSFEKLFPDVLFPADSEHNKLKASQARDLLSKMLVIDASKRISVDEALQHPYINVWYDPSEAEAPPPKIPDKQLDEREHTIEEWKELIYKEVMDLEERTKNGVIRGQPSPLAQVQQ
Experimental: The subcellular distribution of JIP-1 was analyzed by performing indirect immunofluorescence on JIP-1-expressing cells. In these experiments, the cells were grown on coverslips, fixed with 4% paraformaldehyde, permeabilized with 0.25% Triton X-100, and processed for immunofluorescence microscopy. JIP-1 was detected in the cytoplasm, but not the nucleus, of control and UV-irradiated cells. In contrast, JNK is detected in both the cytoplasmic and nuclear compartments.
It is likely that it is JNK in the nucleus which is involved in the regulation of gene expression. Since JIP-1 is cytoplasmic, it was unclear how it could inhibit the nuclear function of JNK. To investigate the mechanism of JIP-1 action, the distribution of JNK was examined in cells that had been transfected with either hemagglutinin (HA)-tagged JNK1 (HA-JNK1) alone, or HA-JNK1 and Flag-tagged JIP-1 (Flag-JIP-1). In these experiments, the cells were exposed to a potent JNK activator (40 J/m^2 UV-C) for one hour prior to processing for immunofluorescence. The primary antibodies used were rabbit anti-HA (12CA5; Boehringer Mannheim), which recognizes HA-tagged JNK1; and mouse monoclonal anti-Flag (M2; IBI-Kodak), which recognizes Flag-tagged JIP-1. The secondary antibodies were Texas Red-goat anti-mouse Ig and fluoroscein isothiocyanate-conjugated donkey anti-rabbit Ig (Jackson Immunoresearch). […]

JNK [4] = test: Immune complex protein kinase assay: JNK, substrate GST-Jun; assay type: biochemical, Chinese hamster; conditions: in vitro, 3 μg GST-Jun, 30 minutes at 30° C.
Experimental: as §1

p38 MAP kinase = molecular target: T2, p38 MAP kinase (Homo sapiens, UniProt Q16539); test: Immunofluorescence: subcellular distribution of p38 MAP kinase on JIP-1 expression; assay type: cell-based
T2 construct: expressed in transfected cells
T2 sequence (Q16539 whole entry): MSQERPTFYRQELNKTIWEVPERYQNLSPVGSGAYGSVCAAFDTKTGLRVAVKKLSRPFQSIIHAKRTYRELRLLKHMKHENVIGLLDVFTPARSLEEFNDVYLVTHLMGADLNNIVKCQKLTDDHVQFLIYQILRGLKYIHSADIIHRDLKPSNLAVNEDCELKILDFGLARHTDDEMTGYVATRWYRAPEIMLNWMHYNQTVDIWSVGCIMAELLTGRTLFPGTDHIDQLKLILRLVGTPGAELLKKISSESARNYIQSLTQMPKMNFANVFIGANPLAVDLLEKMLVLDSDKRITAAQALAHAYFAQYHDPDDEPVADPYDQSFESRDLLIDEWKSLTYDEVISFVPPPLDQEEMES

JNK1 = molecular target: T3, JNK1 (Homo sapiens, UniProt P45983); test: GST-fusion pull-down from cell lysates, Flag immunoblot: JNK1; assay type: binding; conditions: GST pull-down, Flag immunoblot
T3 construct: expressed in transfected cells
T3 sequence (P45983 1-384 isoform P45983-2): as the sequence (P45983 1-384 isoform P45983-2) above
Experimental: To test whether JIP-1 binding to JNK is also isoform-dependent, a binding assay was utilized. Cell lysates (1 ml in TLB) containing JNK1, JNK2, or p38 MAP kinase, each tagged with the Flag epitope, were incubated with 5 μg GST-fusion proteins pre-bound to 10 μl glutathione-Sepharose. The GST fusion proteins used contain residues 127-202 (SEQ ID NO:15), 203-281 (SEQ ID NO:16), 164-240 (SEQ ID NO:17), or 127-281 (SEQ ID NO:4) of JIP-1. The GST-ATF2 fusion protein contains residues 1-109 of ATF2, and the GST-Jun fusion protein contains residues 1-79 of c-Jun. After incubation for one hour at 4° C. and three washes with TLB, bound proteins were detected by protein immunoblot analysis with the M2 monoclonal antibody, which is specific for the Flag epitope. Dérijard, et al., supra; Sluss et al., supra; Gupta et al., supra. […] This finding is consistent with the results of previous studies. In contrast, when GST-JIP-1 fusion proteins containing residues 127-202 or 127-281 of JIP-1 were tested in the assay, these proteins bound both JNK1 and JNK2.
The GST-JIP-1 fusion proteins containing various portions of the JIP-1 gene were used to define regions of JIP-1 that are required for JNK interaction. A GST-JIP-1 fusion protein containing residues 127-281 of JIP-1 bound both JNK1 and JNK2.
To more precisely define the JIP-1 sequence required for JNK binding activity, additional […] fusion proteins were constructed. These fusion proteins contained residues 135-202 (SEQ ID NO:18), 144-202 (SEQ ID NO:19), 154-202 (SEQ ID NO:20), 164-202 (SEQ ID NO:21), 127-143 (SEQ ID NO:22), 127-153 (SEQ ID NO:23), or 127-163 (SEQ ID NO:24) of JIP-1. Proteins containing residues 127-202, 135-202, 144-202, […], and 127-163 all bound both JNK1 and JNK2. Thus, JIP-1 residues 144-163 are important for the interaction of JIP-1 with JNK.

Sequence of p38 (Homo sapiens, UniProt Q16539) (Q16539 whole entry): as the sequence (Q16539 whole entry) above

B1: JIP-1: 660 amino acid murine cytoplasmic protein that specifically binds JNK (protein)
chain: MAERESGLGGGAASPPAASPFLGLHIASPPNFRLTHDISLEEFEDEDLSEITDECGISLQCKDTLSLRPPRAGLLSAGSSGSAGSRLQAEMLQMDLIDAAGDTPGAEDDEEEEDDELAAQRPGVGPPKAESNQDPAPRSQGQGPGTGSGDTYRPKRPTTLNLFPQVPRSQDTLNNNSLGKKHSWQDRVSRSSSPLKTGEQTPPHEHICLSDELPPQGSPVPTQDRGTSTDSPCRRSAATQMAPPSGPPATAPGGRGHSHRDRIHYQADVRLEATEEIYLTPVQRPPDPAEPTSTFMPPTESRMSVSSDPDPAAYSVTAGRPHPSISEEDEGFDCLSSPERAEPPGGGWRGSLGEPPPPPRASLSSDTSALSYDSVKYTLVVDEHAQLELVSLRPCFGDYSDESDSATVYDNCASASSPYESAIGEEYEEAPQPRPPTCLSEDSTPDEPDVHFSKKFLNVFMSGRSRSSSAESFGLFSCVINGEEHEQTHRAIFRFVPRHEDELELEVDDPLLVELQAEDYWYEAYNMRTGARGVFPAYYAIEVTKEPEHMAALAKNSCVLEISVRGVKIGVKADDALEAKGNKCSHFFQLKNISFCGYHPKNNKYFGFITKHPADHRFACHVFVSEDSTKALAESVGRAFQQFYKQFVEYTCPTEDIYLE
co-immunoprecipitation of JIP-1 with p38 (p38 [1]): did not co-immunoprecipitate
phosphorylation of substrate by p38 (p38 [2]): no significant change
amount of nuclear JNK (JNK [3]): reduces
phosphorylation of c-Jun by JNK (JNK [4]): markedly inhibited
subcellular distribution of p38 MAP kinase (p38 MAP kinase): no significant effect
binding of JNK compared with binding of JNK to ATF2 or c-Jun (JNK1): significantly greater
